Data on one protein can be found in paper PMC10160106, “Symport and antiport mechanisms of human glutamate transporters” (Nature Communications, 2023).

The data set deals with the molecule itself. Briefly: cryo-EM structure; EAAT3-X in 0.01% GDN, 20 mM HEPES-Tris pH 7.4, in 200 mM NaCl and 20 mM L-glutamate, 300 mM KCl, 150 mM NMDG chloride or 300 mM NaCl; maps refined with C3 symmetry, then symmetry expansion and local classification of protomers.

B1: MinCys EAAT3 K269C/W441C crosslinked using Hg2+ (EAAT3-X) (natural protein, human, UniProt P43005 1-524, looked up)
chain: MGKPARKGAEWKRFLKNNWVLLSTVAAVVLGITTGVLVREHSNLSTLEKFYFAFPGEILMRMLKLIILPLIISSMITGVAALDSNVSGKIGLRAVVYYFATTLIAVILGIVLVVSIKPGVTQKVGEIARTGSTPEVSTVDAMLDLIRNMFPENLVQAAFQQYKTKREEVKPPSDPEMTMTEESFTAVMTTAISKTKTKEYKIVGMYSDGINVLGLIVFALVFGLVIGKMGEKGQILVDFFNALSDATMKIVQIIMWYMPLGILFLIAGCIIEVEDWEIFRKLGLYMATVLTGLAIHSIVILPLIYFIVVRKNPFRFAMGMAQALLTALMISSSSATLPVTFRCAEENNQVDKRITRFVLPVGATINMDGTALYEAVAAVFIAQLNDLDLGIGQIITISITATSASIGAAGVPQAGLVTMVIVLSAVGLPAEDVTLIIAVDCLLDRFRTMVNVLGDAFGTGIVEKLSKKELEQMDVSSEVNIVNPFALESTILDNEDSDTKKSYVNGGFAVDKSDTISFTQTSQF
modifications: Hg2+ crosslink between C269 and C441
notes: Homotrimer; also called crosslinked EAAT3-X; MiniCys EAAT3 K269C/W441C; source: HEK 293F, transfected, purified (Strep-Tactin, SEC in GDN), crosslinked with HgCl2; not shown: Strep-II, N-terminal, cleaved; GFP, N-terminal, cleaved
On to B1, for which the stoichiometry N (commonly a count of units in the complex or per binding partner) was determined as 3.
